In patent US11472844B2, “Peptidomimetics, method of synthesis and uses thereof” (priority 2017, dated 2022):
Read-outs that look alike come from different tables or passages of the source.

Legend:
[1] = Analytical gel filtration (size exclusion chromatography); assay type: physicochemical; settings: for relative masses estimated from standard proteins' elution volume: 10 μg/ml in 20 mM phosphate buffer; for relative masses estimated from standard proteins' elution volume / experimental Mr: 150 mM NaCl, pH7.4; for experimental Mr: 20 mM phosphate buffer; for oligomeric organization: phosphate buffer, vs theoretical MW
Procedure: Size Exclusion Chromatography. Gel filtration was performed using an Agilent 1100 system (Agilent Technologies; Palo Alto, Calif., USA) and monitored by absorbance at 280 nm. MUB40 peptides were solubilized in the gel filtration buffer (20 mM phosphate buffer, 150 mM NaCl, pH7.4) at a concentration of 10 μg/ml, 100 μg/ml, or 1 mg/ml), separately injected on a Yarra™ 3μ SEC-2000 300×7.8 mm column (Phenomenex, Le Pecq, France), and eluted at a 0.5 ml/min flow rate. The column was calibrated with a mixture of standards proteins (ribonuclease A, 13.7 kDa; carbonic anhydrase 29 kDa; ovalbumin 44 kDa; GE Healthcare) complemented with a custom synthetic peptide of our own library (peptide x, 5.1 kDa; Institut Pasteur). The logarithm of the molecular weights were plotted versus the corresponding partition coefficients (Kay=(Ve−Vo)/(Vc−Vo); Ve, elution volume; Vo, void volume; Vc, geometric column volume), giving log(Mr)=2,3108−2,2361Kav as a calibration curve equation.

[2] = tested on: living human neutrophils; test: Live microscopy of neutrophils infected with Shigella flexneri; assay type: cell-based; settings: live cells
Procedure: Neutrophil infection. Human purified neutrophils were cultured in glass-bottom dishes (Mattek) for live fluorescent microscopy in a RMPI 1640 (Life Technologies) culture medium supplemented with 10% of heat inactivated Human Serum (Sigma-Aldrich). Neutrophils (5.10^5 cell/mL in 2 mL) were infected with exponentially-grown Shigella flexneri 5a pGFP at a Multiplicity Of Infection (MOI) 20 in RMPI 1640 (Life Technologies) culture medium supplemented with 10 mM Hepes (Life Technologies) at 37° C. Infected neutrophils were centrifuged at 2000 rpm for 10 min prior imaging.
Live epifluorescence microscopy. Viable neutrophils infected with S. flexneri pGFP were imaged on a Definite focus live microscope (Zeiss) equipped with a temperature control chamber (37° C.) and a 63× oil immersion objective. Images were acquired every 60 s. Z-stack images were taken with […] step-size increments. Obtained Z-stack images were processed with Fiji software to generate a Movie and the corresponding extracted images are shown in FIG. 16a.

[3] = tested on: human colonic mucus; test: Fluorescent labelling of human colonic mucus layer; assay type: binding; settings: 1 μg/mL
Procedure: (§1) Colon explant surgical collection. In summary, human colon segments (ascending, descending, and sigmoid colon) were obtained from fully informed patients undergoing surgery for colon carcinoma and were analyzed anonymously. Patient written consent was obtained, according to the French bioethics law. None of the patients had undergone radiotherapy or chemotherapy. According to the pathologist's examination rules for the longitudinally bisected colon, a healthy segment of tissue, which was distant from the tumor region and devoid of metastatic cells, was removed. Tissues were processed according to the French Government guidelines for research on human tissues and the French Bioethics Act with the authorization no RBM 2009-50.
Fixation and staining procedures. For microscopy studies, purified or cultured cells and polymerized lactoferrin were resuspended onto 24-well plates containing 12 mm coverslips in RMPI 1640+10 mM Hepes (when cultured in the autologous plasma) and centrifuged at 300×g for 10 min. Culture media were removed and cells were fixed in 4% Paraformaldehyde (PFA) for two hours. Fixed cells were washed three times in PBS+0.1% saponin (Sigma-Aldrich), prior immunolabeling with primary antibodies in the same buffer for 1 hour (Triton 0.1% can alternatively be used for cell permeabilization). After three additional washes in PBS+0.1% saponin, secondary antibodies and fluorescent markers were incubated for one hour. […]
(§2) Antibodies, fluorescent markers. For immunofluorescence assay, lactoferrin was detected with a mouse anti-lactoferrin primary monoclonal antibody (Hycult biotech, clone 265-1K1, 1:50 dilution) and an anti-mouse-FITC conjugated secondary antibody (1:1000). Nuclei were detected with DAPI (Life Technologies), Lyophilized MUB40 peptides (MUB40#1 (SEQ ID NO: 3)-Cy5, MUB40#2 (SEQ ID NO: 4)-Cy5, MUB40#3 (SEQ ID NO: 5)-Cy5, MUB40#4 (SEQ ID NO: 6)-Cy5, MUB40#1 (SEQ ID NO: 3)-Dylight, RI-MUB40 (SEQ ID NO: 2)-Cy5, and RI-MUB40 (SEQ ID NO: 2)-Biotin) were solubilized in a phosphate buffer pH8 at a 1 mg/mL concentration and used at a 1:1000 dilution. […]

[4] = tested on: colonic mucinous carcinoma; test: Mucinous carcinoma immunofluorescent staining; design: species or system human; settings: together with anti-Muc2 antibody, 1 μg/mL
Procedure: FIG. 3. Mucinous carcinoma immunofluorescent staining with MUB40 #1 (SEQ ID NO: 3)-Cy5 (MUB40-Cy5) and anti-Muc2 antibody (with a secondary antibody conjugated with FITC).
Muc2 was stained with an anti-Mucin2 antibody (green). Tissue was additionally stained with MUB40-Cy5 (1 μg/mL, magenta). DNA was stained with Dapi (blue).

[5] = molecular target: trypsin (Sus scrofa, UniProt P00761); settings: trypsin digestion, 37°C, pH8, followed up to 24 h
Procedure: Trypsin proteolysis. MUB40 (SEQ ID NO: 3)-Cy5 and RI-MUB40 (SEQ ID NO: 2)-Cy5 were dissolved in 50 mM ammonium bicarbonate, pH 8. Prior to digestion and owing to the propensity of maleimide derivatives to undergo ring-opening in a basic environment (Fontaine et al., 2015), we incubated both peptides at 37° C. overnight. Ring-opening completion was checked before trypsin addition. […] Lyophilized trypsin (Thermo scientific) was reconstituted using 50 mM acetic acid, diluted with 50 mM ammonium bicarbonate and added to the peptide solution so as to obtain a final peptide concentration of 0.25 mg/mL and a protease to protein ratio of 1:20 (w/w). Samples were directly incubated on the injection sampler thermostated at 37° c. HPLC and LC-MS analyses were performed as previously described above, applying a 15% to 40% linear gradient of acetonitrile in 10 mM ammonium acetate over 20 minutes.
Hydrolysis experiments were done in solution at 37° c., pH8 and monitored by HPLC by measuring the peak area of the remaining intact peptides.

[6] = tested on: Colonic goblet cell granules; test: Fluorescent labelling of colonic goblet cell granules on fixed slides; assay type: cell-based, human; settings: 1 μg/mL
Procedure: as §1, §2

[7] = Coïc et al., 2012; cited from earlier work

Chain of trypsin (P00761 9-231): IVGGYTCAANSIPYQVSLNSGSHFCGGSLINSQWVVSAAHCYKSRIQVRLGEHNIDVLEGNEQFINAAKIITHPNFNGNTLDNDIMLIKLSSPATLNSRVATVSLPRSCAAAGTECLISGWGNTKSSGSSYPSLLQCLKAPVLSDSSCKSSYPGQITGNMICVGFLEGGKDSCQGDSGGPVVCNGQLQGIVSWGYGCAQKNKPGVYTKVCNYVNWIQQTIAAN

MUB40#3: overlapping 40-amino acid peptide covering the MUB70 sequence (CDQMLRQDDLDGYTDETIPYSTAEGIKKFEGDGYELFKDNF; MUB40-3 probe with Cysteine at N terminal extremity)
relative masses estimated from standard proteins' elution volume [1]: 20.5 | experimental Mr [1]: 20.5 kDa | oligomeric organization [1]: tetramers

MUB40#2: overlapping 40-amino acid peptide covering the MUB70 sequence (CGYTDETIPYSTAEGIKKFEGDGYELFKDNFPAGEKFDNDD; MUB40-2 probe with Cysteine at N-terminal extremity)
relative masses estimated from standard proteins' elution volume [1]: 22.0 | experimental Mr [1]: 22.0 kDa | oligomeric organization [1]: tetramers

CC[C@@H](C)[C@@H](NC(=O)[C@@H](CCCCN)NC(=O)[C@@H](CCCCN)NC(=O)[C@@H](Cc1ccccc1)NC(=O)[C@@H](CCC(=O)O)NC(=O)CNC(=O)[C@@H](CC(=O)O)NC(=O)CNC(=O)[C@@H](Cc1ccc(O)cc1)NC(=O)[C@@H](CCC(=O)O)NC(=O)[C@@H](CC(C)C)NC(=O)[C@@H](Cc1ccccc1)NC(=O)[C@@H](CCCCN)NC(=O)[C@@H](CC(=O)O)NC(=O)[C@@H](CC(N)=O)NC(=O)[C@@H](Cc1ccccc1)NC(=O)[C@H]1CCCN1C(=O)[C@@H](C)NC(=O)CNC(=O)[C@@H](CCC(=O)O)NC(=O)[C@@H](CCCCN)NC(=O)[C@@H](Cc1ccccc1)NC(=O)[C@@H](CC(=O)O)NC(=O)[C@@H](CC(N)=O)NC(=O)[C@@H](CC(=O)O)NC(=O)[C@@H](CC(=O)O)NC(=O)[C@H](NC(=O)[C@@H](CC(N)=O)NC(=O)[C@@H](CC(=O)O)NC(=O)[C@@H](CCC(N)=O)NC(=O)[C@@H](Cc1ccccc1)NC(=O)[C@@H](Cc1ccc(O)cc1)NC(=O)[C@H](NC(=O)[C@H](NC(=O)[C@H](NC(=O)[C@@H](Cc1ccccc1)NC(=O)[C@@H](CS)NC(C)=O)[C@H](C)CC)C(C)C)[C@H](C)O)[C@H](C)O)C(=O)NCC(=O)N[C@H](CCC(=O)O)C(=O)N[C@H](C)C(=O)N[C@@H](C(N)=O)[C@H](C)O [RI-MUB40]
crossing of plasma membrane of living cells [2]: do not cross plasma membranes | labelling of / binding to human colonic mucus [3]: validated

MUB40#4: overlapping 40-amino acid peptide covering the MUB70 sequence (CVHVQYIDGETDQMLRQDDLDGYTDETIPYSTAEGIKKFEG; MUB40-4 probe with Cysteine at N terminal extremity)
relative masses estimated from standard proteins' elution volume [1]: 20.4 | experimental Mr [1]: 20.4 kDa | oligomeric organization [1]: tetramers

MUB40#1: 40-amino acid L-peptide, MUB70 C-terminal part, with N-ter added cysteine; L counterpart of RI-MUB40 (CTAEGIKKFEGDGYELFKDNFPAGEKFDNDDTNDQFYTVIF; MUB40-1 probe with Cysteine at N-terminal extremity)
labelling of colonic mucinous carcinoma [4]: similarly labelled | relative masses estimated from standard proteins' elution volume [1]: 15.9 | experimental Mr [1]: 15.9 kDa | oligomeric organization [1]: trimer | degradation by trypsin (in words) ([5]; listed as MUB40): rapidly degraded | degradation by trypsin (in words) ([5]; listed as MUB40 #1): almost completely degraded within 3 h

B1: MUB70-Cy5: MUB70 (SEQ ID NO: 11) conjugated to Cy5 (conjugate, listed as Lactobacillus reuteri)
chain: VHVQYIDGETDQMLRQDDLDGYTDETIPYSTAEGIKKFEGDGYELFKDNFPAGEKFDNDDTNDQFYTVIF
modifications: also: conjugated to Cy5 (site not given here)
labelling of colonic goblet cell granules [6]: not the case

B2: MUB70: 70 AA peptidic marker of human colonic mucus from L. reuteri MUcus Binding Associated Domains (peptide, listed as Lactobacillus reuteri)
chain: VHVQYIDGETDQMLRQDDLDGYTDETIPYSTAEGIKKFEGDGYELFKDNFPAGEKFDNDDTNDQFYTVIF
oligomeric organization [7]: trimer
